# Assay: soluble on expression in E. coli; label from the status in PepcDB or PDB records
row,Sequence,soluble on expression in E. coli
1,MNISPKAIKVRNIWIGGTEPCICAPVVGEDDRKVLREAEEVCRKQPDLLEWRADFFRAIDDQERVLATANGLRNIAGEIPILFTIRSEREGGQPIPLNEAEVRRLIEAICRSGAIDLVDYELAYGERIADVRRMTEECSVWLVVSRHYFDGTPRKETLLADMRQAERYGADIAKVAVMPKSPEDVLVLLQATEEARRELAIPLITMAMGGLGAITRLAGWLFGSAVTFAVGNQSSAPGQIPIDDVRTVLSILQTYSR,soluble
2,MSLKTSRLPIAIQQAVMRRLREKLAQANLKLGRNYPEPKLSYTQRGTSAGTAWLESYEIRLNPVLLLENSEAFIEEVVPHELAHLLVWKHFGRVAPHGKEWKWMMESVLGVPARRTHQFELQSVRRNTFPYRCKCQEHQLTVRRHNRVVRGEAVYRCVHCGEQLVAKEGHHHHHH,not soluble
3,MSAPKPFVIGIAGGTASGKTTLAQALARTLGERVALLPMDHYYKDLGHLPLEERLRVNYDHPDAFDLALYLEHAQALLRGLPVEMPVYDFRAYTRSPRRTPVRPAPVVILEGILVLYPKELRDLMDLKVFVDADADERFIRRLKRDVLERGRSLEGVVAQYLEQVKPMHLHFVEPTKRYADVIVPRGGQNPVALEMLAAKALARLARMGAA,soluble
4,MARETHDREDLLLEGVNLPERARLLHRASGREWVIGWRTGGGAAFYDGPDRVYQFNADNQLRRVYLDGSKLAAEGGRLCELRRPEPTNPDGSAGDRTQKVKLVWQPIDSAIQRNVLEQWAETRQQLLTALELFRERDLPNVTIASTAPDGSNSSLSTQPSIYSWESVGIDAFEMLDRTSGWLVSITDNPEIAAQPNA,soluble
5,MAHHHHHHMSDSEWSSDSGVSNAEAIAAASLNKHLGELMTLQHPSRVTHRRPAYATSEGTTASSATISHTPRVSGEAPRKQARMDISSLIRQALSQSSAHCTSANVDEVAGRVVAALRQKAGGAEVARAVTRALADPLNEELRESVLSGLLRPEELVALDEVSLLNQAERSVLAKARRERLNQHSVEYLERLNLTVTNMLTCPECRSHECYANFRFTDFVKWQGDDQTPTLQRCCRCSVSFCNERGKRAASAPGACLCAWVAVKVLSATTASRPCIHPSSNRHRTARRGSTRETGKISRFSSCRTRHHFCQKR,not soluble
6,GHSMHHHHHHLGNKLSISDLKDIKNKKVLVRVDFNVPIENGIIKDTNRITATLPTINHLKKEGASKIILISHCGRPDGLRNEKYTLKPVAETLKGLLGEEVLFLNDCVGKEVEDKINAAKENSVILLENLRFHIEEEGKGVDANGNKVKANKEDVEKFQNDLTKLADVFINDAFGTAHRAHSSMVGVKLNVKASGFLMKKELEYFSKALENPQRPLLAILGGAKVSDKIQLIKNLLDKVDRMIIGGGMAYTFKKVLNNMKIGTSLFDEAGSKIVGEIMEKAKAKNVQIFLPVDFKIADNFDNNANTKFVTDEEGIPDNWMGLDAGPKSIENYKDVILTSKTVIWNGPQGVFEMPNFAKGSIECLNLVVEVTKKGAITIVGGGDTASLVEQQNKKNEISHVSTGGGASLELLEGKELPGVLALSNK,soluble
7,MSLKNIEKELENLRTIFRSIGLIKFKPYFSYMGLFKDDTMFGLYKEKCLYLRKSDQYLQEIKDTIPIHFLSDHKISRQSKIFYLVPQHIIENISSYSHWITSSISEYQRLRSKIRTENQTKIRILLNMNINIERLLARVNINTVDEFKQVGETKAFVRLIQQGFEVNQLLLFKLYGALQHKYIYMLSLEEKKRLLEQADSALYDAGLRKRFTVEGHHHHHH,soluble
8,MGSDKIHHHHHHMKAGTQKTLTHSDLVEQGVRFLLASYVDLHGVPKAKAVPISHFDRMMNGSEMFTGAALDGVPQEISDEEVAAHPDMGSAIVLPWSKDIAWLPSDLYTQGEPFNACSRTILKKVRQQAAELGMAMQLGIEAEFFVLKDQEAGGFSPISTRHHLKKPAYDVARLLDNKPWLSELVEAMDSLDWGVYSFDHEDGIGQFEIDFSYFEVLRMADNFTFLRMMANEIARKHGGFASFMPKPYGDRAGSGAHFNISLTDINTGLNLFEPEQDDPRGCGLSTLGYQFIAGVLRHLPAICAVVAPTVNSYKRLVKQGSMSGFTWAPVFCCYGNNNRTNTIRIPLGGKRIEIRAVDSACNPYLGAAMILAAGLEGIRENLDPGDPHLDNMYEKTPEELASLGIRELPKTLEEAIDAFEADPLSRQVFGDQMFSAWTQYKREEWLSYITHVSDWEYDRYLKLF,not soluble
9,MLSFVKELNFEINQKKYFIKIYLQPRIKYIKIKIINHQIVCLINHLKLINIAEEFIKNNKLKILKIYENDLKKIKYDEQSLDWIILLGIKFTTIKIKNNNFHCQFNFQKQIIYLYDQNQNLTNTKLLYQKILIYLAEIIFPQIIKNAQNITTLTVKKYVFGFYKSQWGVYNKIKHTIGLSYFLVHYDQDIINYVVIHELAHIKYQHHQKSFWDFVLKYCKNAKIYNNQLKFLEHHHHHH,soluble
10,ANSVQQQLEALEKSSGGRLGVALINTADNSQILYRADERFAMCSTSKVMAAAAVLKQSESDKHLLNQRVEIKKSDLVNYNPIAEKHVNGTMTLAELGAAALQYSDNTAMNKLIAHLGGPDKVTAFARSLGDETFRLDRTAPTLNTAIPGDPRDTTTPLAMAQTLKNLTLGKALAETQRAQLVTWLKGNTTGSASIRAGLPKSWVVGDKTGSGDYGTTNDIAVIWPENHAPLVLVTYFTQPEQKAERRRDILAAAAKIVTHGF,soluble
11,MGSDKIHHHHHHMLTKRQLLVLKEIIRLFTESGQPVGSKTLMQELPVHVSSATIRNDMAALEDAGLITKTHSSSGRVPSTQGYRYYLDHLVEPVRVSRHDLATIKQELGQRYSKMDEIVAQSAQILSNLTSYTAISLGPEVNNIKLTGFRLVPLGNHQVMAILVTNNGNVENQVFTVPPSISFDELEKAIRIVNDQLVGLPLVQVAQRLRTDVPSMLMQYLTSPDGFLDIFGNVLKSAASERFYVGGRLNLMDYLGDSDIHELKKIMSLIDADHGDLTELLGGPIRQTPVQVRLGPELKPIDLANLSLITASYDVGGHGTGMIALLGPTQMPYSKMIGLLDVFREELAKRLTDYYANFDQ,not soluble
12,MSLKKEGDATAVLIGYPSVGKSTLLNKLTGAKSEVADYDFTTLKPVPGILNYKGASIQIIDVPGIIEGAASGRGRGKEVISAVRVADLIIIVADVFNLHTIDIVKRELYEGGIRLDQKPPDVVIRKKERGGVRISSTVPLSIDEATITSVLKEYKIHSADVVIREDITIERLIDALAGNRVYIPSLTVVNKIDLMDVDVADAIKVSAEKGINLDLLKEQIYRKLEFIRVYLKPPGGKVDFSEPMILRRGATVEDICRKLHRDFVENFRYAKVWGKSVKFDGQRVGLEHVVEDGDIITIYAEGHHHHHH,soluble
13,GPGSMLNTAFSTADGRRLPRDLTDQQKRDIEEAFRVLDVKGVSTITPNDLKVALRALGYEPDKDAVRKLVAEMDRGGVSSNLVLSEFEDVMRQRFFAEDKDDEVDLAFPLFTEGKSEFISLDDLKRVAAEVGEDIPEDVLQEIIRECDVLDRDGRISREEFNKMLKSDK,soluble
14,MHHHHHHSSGVDLGTENLYFQSNAMKKVLIVFGTRPEAIKMAPLVQQLCQDNRFVAKVCVTGQHREMLDQVLELFSITPDFDLNIMEPGQTLNGVTSKILLGMQQVLSSEQPDVVLVHGDTATTFAASLAAYYQQIPVGHVEAGLRTGNIYSPWPEEGNRKLTAALTQYHFAPTDTSRANLLQENYNAENIFVTGNTVIDALLAVREKIHTDMDLQATLESQFPMLDASKKLILVTGHRRESFGGGFERICQALITTAEQHPECQILYPVHLNPNVREPVNKLLKGVSNIVLIEPQQYLPFVYLMDRAHIILTDSGGIQEEAPSLGKPVLVMRETTERPEAVAAGTVKLVGTNQQQICDALSLLLTDPQAYQAMSQAHNPYGDGKACQRIADILAK,soluble
15,MHRYLWQQADGKRHVYDTTRHRIQAEHSFTALCGETVIPRTERGDLTAGLWFDGECPVCTIALAKALGWPMRELADLAHRFTWSPELLARLAEILHCTSGEVAELTGARTVDT,not soluble

# Source: the DeepSol protein solubility set
